test: soluble fraction after stress (log2 fold change); higher = more stays soluble; pooled small domains, quantitative proteomics; conditions: stress: 50 degC
Method in brief: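 Quantitative proteomics served as the high-throughput read-out for pooled custom libraries of small protein domains. Each was stressed at 50°C. Aggregation propensity is expressed as the base-two log fold change in soluble protein after stress. A higher value means a larger share of the protein remains in solution.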

For “HMGDVATVKLDNNGLLNMRKSDARGADIVARIPNGTVVQVLNRETEWTQVRYDGKEGYVMSSFLQFAE”, which “soluble fraction (log2)” value is on record?
The value was 0.199.

With “HMPTLLGYKHILSAWNPDTNTVFRTSYGYDGEYGSREEAMQALIKMIQEGGKATPRGIEESEVPIY” as the sequence, how does the “soluble fraction (log2)” value read?
The value was -0.126.

Which “soluble fraction (log2)” value does the source give for “HMFPELNAEETQVVQLLQKQTEGMQVNSLVVESNIPITRMSGILFELELKGIIRNYAGGVYKL” here?
The value was -2.16.

Which “soluble fraction (log2)” value does the source give for “HMVDPELFIWVESSKEPVYHLAYKIELFVHSTDPQDDVPVHRWQVFVDAHNGNILDKFDEVR” here?
Its value is -0.159.

For “HMGGGVSSSLAGNVFKVLLPAGSVVEQGQAVIVLEAMKMETEVNAPKSGSVSSVFVNEGDTVEVGDLLFAI”, which “soluble fraction (log2)” value is on record?
The value was -0.17.

Which “soluble fraction (log2)” value does the source give for “HMQTQVEVLVKYVLEDGTVYKEDKVSADIGAILDSGDLPMLSNDMKFIDDFLFYEVKESDNVIERKVAKLV” here?
Its value is 0.114.

For “HMQWQPSEEAMQRLEQHGIPRAFSFSQLDAFVLQGQEQGSNRNDWNTRFFRFIKNQWVYAQN”, which “soluble fraction (log2)” value is on record?
Its value is -1.62.

With “HMQISDDSELIKIVDNILANSQKQIDDYHNGKTNLFGFFVGQVMKETKGKANPVKVNEILKDKL” as the sequence, how does the “soluble fraction (log2)” value read?
Its value is 0.00641.

For “HMGAYIPSYAPVDINAATHTVVRGDTVYNISKRYHVSQEDFRAWNGMADNTLSIGQVVKVKPAGYTAPK”, which “soluble fraction (log2)” value is on record?
The value was -0.087.

With “HMGPAVGAIRVEGNKRVEPETVRTYLTFNVGDPYDLAKVDESLKALFATGLFQDVRIRREGNTVVIVVVEN” as the sequence, how does the “soluble fraction (log2)” value read?
Its value is -0.368.

Which “soluble fraction (log2)” value does the source give for “HMKRAVGLDEYRDSIVLKKPEGYTEESYAAYKNAYDALMALDSKETTAEMFANAKSAFEAAQAGLVQKP” here?
Its value is 0.101.

With “HMYMKTITEQFGERLKKIRTQKSLSQEQLSYLADIDRSYISDVERGARNISLENIYKLASALNIPPYLVLL” as the sequence, how does the “soluble fraction (log2)” value read?
The value was -0.273.

For “HMASKTGTITATSLNVRSGAATTYSILGTLSNGKTVTIYEESNGWYKINYNGGYGWVSKTYVSTG”, which “soluble fraction (log2)” value is on record?
The value was -0.435.

Which “soluble fraction (log2)” value does the source give for “HMRDSYTFEDIEKLKDSYLQDSEKALEKLISIYEDTNQSLAIRTAALDIITDSQDPTFKLALEKIIS” here?
Its value is 0.0263.

With “HMLDKIRTYIDNSFTGVNETKKVKELKDELFENLKEKYNDQIQDGKTEQEAYNSVISGIGDLSELIESVK” as the sequence, how does the “soluble fraction (log2)” value read?
The value was 0.553.

For “HMPEFKDMLKFFRMREHLSQSELAEKLGISASTVSMYEVGRRQPDFETEEKIADFFNTDLNTLRG”, which “soluble fraction (log2)” value is on record?
Its value is -0.39.

For “HMLSVLKNVDVNSLSDDKIKTYWQQIQKSGYTLDEVEVLAEAQGISPLKIAAFKRRVQSLQQSLQT”, which “soluble fraction (log2)” value is on record?
Its value is 0.199.

With “HMNELVEATITTQTGRLDKVLTTIFPQYSRSQIQQLLEQGNILVNETLQKGKYKVKAGDKISLTEPAIKE” as the sequence, how does the “soluble fraction (log2)” value read?
Its value is 0.111.

Which “soluble fraction (log2)” value does the source give for “HMTNADRFIGEEAMVIKKIDDINNDGQVKIAGQVWSAVSEDKSPLEEGTIVKVIAIRGVKLVVEPVS” here?
Its value is 0.0662.

For “HMQSVPELDQQFKIAIENNDFIKLAQLKEQGYHPSKEVMQSLSNTTPNNTIIAVQKIFGLKA”, which “soluble fraction (log2)” value is on record?
Its value is 0.231.

For “HMDSLNWVEKIINTLPEQQRLIIQMRDIEQYEFAEIAKILEMNETAIRVALSRARKTIREFMIKTH”, which “soluble fraction (log2)” value is on record?
The value was -1.07.

With “HMFYLPEPLTEQELRILGMLLDGRSNPEIAAELFIAVGTAKWHVHNILQKLGVANRAQAIVKAHELGLT” as the sequence, how does the “soluble fraction (log2)” value read?
Its value is -1.91.

With “HMAEPTLNERLREALSDPAKLKIAKAIKAKYPIITARDIDTFLNMHEKDIENGADPMDEFEEFFHANY” as the sequence, how does the “soluble fraction (log2)” value read?
The value was 0.127.

Which “soluble fraction (log2)” value does the source give for “HMDPTHDMHFLVKDQVTGQPLPNMPYRLQLDNGQTLTGRTDALGMTEKISGHSPHIASIEVPY” here?
Its value is 0.18.

For “HMFYNELMNFIVYKDSQKIGKIVNINDKLPQPVFEVLINDKKFMVPIHDDFIEKIDKEKKSIHIVIPDGLL”, which “soluble fraction (log2)” value is on record?
Its value is 0.0184.

Which “soluble fraction (log2)” value does the source give for “HMSAETREELVGREGVSLTDLRPSGFALFGQEKIDVVSESEFIEEGTSVRIVSVEGSRHIVRAKR” here?
Its value is 0.0998.

Which “soluble fraction (log2)” value does the source give for “HMQAPAFDYSKVQEGVTVNHKIFGDGTVSWIDKARKYIRVQFSVGEKMFTMETAFVQGFLSL” here?
The value was -0.348.

For “HMKVSNWYFNGAPSATTPPTSQWTTEKDKKAHIGDTFTSLDKSPSPNAGKSWRYTPSYTWEEIV”, which “soluble fraction (log2)” value is on record?
Its value is 0.344.

Which “soluble fraction (log2)” value does the source give for “HMQNGNLVDVYLNWRGKYYAIKMFFPNSKMPRRSDVQDQIVKVYPDARVQSFQVSKYVPGQPFL” here?
The value was -1.62.

With “HMGKSDDSLAAEKFIQHVRKNGELSYEQAYRMVHAYFPDFRNFEGMVSGAVKSGYLILIQKSTGLFLRAKE” as the sequence, how does the “soluble fraction (log2)” value read?
Its value is -0.882.

With “HMQNYLEFIGNELKALTSIPSPSGYTKDVAAYLMKTLSDMGYEPQLSNKGNVFVTIGGEGNPLVLAAHVD” as the sequence, how does the “soluble fraction (log2)” value read?
Its value is -0.0984.

Which “soluble fraction (log2)” value does the source give for “HMYQPLYEQIKRMLTQSLIDGEWKAGEMIPSEMELAARFKVSQGTVRKAIDELVSENILMRRQGKGTFVH” here?
Its value is -0.231.

With “HMKMLPAEVLTHPAVVALIERGAPTGSITPEEVRQASEDAAVEPRHLKALLAHLSALGISVQIP” as the sequence, how does the “soluble fraction (log2)” value read?
Its value is -0.217.

With “HMPDLSEDEEKIVSLLRDNNDLNVNIIVMRTQLPSATVTSSLFSLELKGVVRMYAGGMYHLM” as the sequence, how does the “soluble fraction (log2)” value read?
Its value is -1.7.

Which “soluble fraction (log2)” value does the source give for “HMKTGNIITVSLVWKGKYYMIRMFFPSASRPTRSDVQNEIEKVYPGSKLSTFSVSDYEPGQPLLQV” here?
The value was -1.16.

Which “soluble fraction (log2)” value does the source give for “HMPNTLAGIERYLGSGMVKGIGPVYASRLVSAFGTAVFDVIEQTPERLREIDGIGEKRTRKITSGWADQ” here?
Its value is -0.127.

Which “soluble fraction (log2)” value does the source give for “HMGRLEVDLVVPYDKYEAMNVIRAEGRILKEDHQGDGAHLKIQINETALWKLKRMLGEGYGQ” here?
Its value is -0.157.

Which “soluble fraction (log2)” value does the source give for “HMNYKDQISRYFQQAFHIYPKYQTMKNEEGNFTSKIFKDDKMIIEGVGKSKKKAEQDVSRKALIHFNVL” here?
The value was -0.262.

Reference: the domain aggregation screens of Martell et al. (2025)
